Data set [1] has as its target T1, Mei-P26 NHL wt (Drosophila melanogaster (Oregon-R), UniProt M9PH32 908-1206).
T1 sequence: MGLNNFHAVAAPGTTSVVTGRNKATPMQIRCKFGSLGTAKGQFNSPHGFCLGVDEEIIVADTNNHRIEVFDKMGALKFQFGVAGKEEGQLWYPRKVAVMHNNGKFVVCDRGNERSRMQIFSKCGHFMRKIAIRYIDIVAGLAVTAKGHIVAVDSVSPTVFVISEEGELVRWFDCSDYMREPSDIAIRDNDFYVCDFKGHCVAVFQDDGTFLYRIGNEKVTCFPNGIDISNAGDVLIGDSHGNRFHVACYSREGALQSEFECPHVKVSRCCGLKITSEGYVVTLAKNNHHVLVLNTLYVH
In words: MST; MST: 20 mM Hepes/KOH pH 7.5, 100 mM NaCl, 5 mM MgCl2, 5 mM DTT, 0.0125% Tween 20, 25 C (Brat: 20 mM Tris 8.0, 150 mM NaCl, 1 mM MgCl2, 5 mM DTT, 0.0125% Tween 20). EMSA, 1:1 mix, 4 C: RNA in 10 mM Tris pH 7.4, 50 mM KCl, 1 mM EDTA, 1 mM DTT, 0.4 mg/ml yeast tRNA; protein in 20 mM Hepes pH 7.5, 5 mM DTT, 100 mM (wt) or 300 mM (mutants) NaCl, 5% glycerol. Conditions: protein: recombinant, tags: GST removed by TEV. On the technique in general: In EMSA bound probe runs differently from free probe, usually more slowly.

Data set [2] concerns the target T2, Mei-P26 NHL RKR (Drosophila melanogaster (Oregon-R), UniProt M9PH32 908-1206, R1150A;K1172A;R1175A).
T2 sequence: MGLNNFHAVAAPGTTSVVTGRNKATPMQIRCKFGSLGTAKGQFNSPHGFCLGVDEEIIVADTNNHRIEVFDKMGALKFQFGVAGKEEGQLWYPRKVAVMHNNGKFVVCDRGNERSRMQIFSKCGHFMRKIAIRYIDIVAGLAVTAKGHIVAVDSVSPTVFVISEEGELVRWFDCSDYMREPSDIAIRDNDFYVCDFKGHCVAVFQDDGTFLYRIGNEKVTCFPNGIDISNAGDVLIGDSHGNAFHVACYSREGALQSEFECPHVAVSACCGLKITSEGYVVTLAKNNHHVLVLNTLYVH
In words: EMSA; MST: 20 mM Hepes/KOH pH 7.5, 100 mM NaCl, 5 mM MgCl2, 5 mM DTT, 0.0125% Tween 20, 25 C (Brat: 20 mM Tris 8.0, 150 mM NaCl, 1 mM MgCl2, 5 mM DTT, 0.0125% Tween 20). EMSA, 1:1 mix, 4 C: RNA in 10 mM Tris pH 7.4, 50 mM KCl, 1 mM EDTA, 1 mM DTT, 0.4 mg/ml yeast tRNA; protein in 20 mM Hepes pH 7.5, 5 mM DTT, 100 mM (wt) or 300 mM (mutants) NaCl, 5% glycerol. Conditions: protein: recombinant; tags: GST removed by TEV; label: 32P.

Data set [3] deals with T1, Mei-P26 NHL wt. The description is as above. To be noted: protein: recombinant, tags: GST removed by TEV.
In data set [4] the target is T3, Mei-P26 NHL R1175A (Drosophila melanogaster (Oregon-R), UniProt M9PH32 908-1206, R1175A).
T3 sequence: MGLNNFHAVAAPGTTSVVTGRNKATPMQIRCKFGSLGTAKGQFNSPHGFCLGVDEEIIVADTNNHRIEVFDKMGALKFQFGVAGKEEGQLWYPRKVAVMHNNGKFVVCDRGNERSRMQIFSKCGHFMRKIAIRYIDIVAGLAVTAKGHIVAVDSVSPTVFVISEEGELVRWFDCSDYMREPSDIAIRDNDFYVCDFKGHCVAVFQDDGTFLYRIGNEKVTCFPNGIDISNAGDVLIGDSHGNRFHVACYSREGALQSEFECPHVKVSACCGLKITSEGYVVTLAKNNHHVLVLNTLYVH
In words: MST; minor influence of the mutation; MST: 20 mM Hepes/KOH pH 7.5, 100 mM NaCl, 5 mM MgCl2, 5 mM DTT, 0.0125% Tween 20, 25 C (Brat: 20 mM Tris 8.0, 150 mM NaCl, 1 mM MgCl2, 5 mM DTT, 0.0125% Tween 20). EMSA, 1:1 mix, 4 C: RNA in 10 mM Tris pH 7.4, 50 mM KCl, 1 mM EDTA, 1 mM DTT, 0.4 mg/ml yeast tRNA; protein in 20 mM Hepes pH 7.5, 5 mM DTT, 100 mM (wt) or 300 mM (mutants) NaCl, 5% glycerol. Conditions: protein: recombinant; tags: GST removed by TEV; label: Cy5 (MST); 32P (EMSA).

Data set [5] deals with T4, Brat NHL (Drosophila melanogaster, UniProt Q8MQJ9 756-1037).
T4 sequence: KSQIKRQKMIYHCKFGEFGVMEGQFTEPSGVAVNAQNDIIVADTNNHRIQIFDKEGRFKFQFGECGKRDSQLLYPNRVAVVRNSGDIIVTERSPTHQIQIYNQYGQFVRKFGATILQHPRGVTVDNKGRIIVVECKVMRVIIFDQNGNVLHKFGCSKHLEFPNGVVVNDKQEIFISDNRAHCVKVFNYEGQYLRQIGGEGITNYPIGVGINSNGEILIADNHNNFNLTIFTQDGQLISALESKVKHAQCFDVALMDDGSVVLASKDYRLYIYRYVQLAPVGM
Put plainly: MST; MST: 20 mM Hepes/KOH pH 7.5, 100 mM NaCl, 5 mM MgCl2, 5 mM DTT, 0.0125% Tween 20, 25 C (Brat: 20 mM Tris 8.0, 150 mM NaCl, 1 mM MgCl2, 5 mM DTT, 0.0125% Tween 20). EMSA, 1:1 mix, 4 C: RNA in 10 mM Tris pH 7.4, 50 mM KCl, 1 mM EDTA, 1 mM DTT, 0.4 mg/ml yeast tRNA; protein in 20 mM Hepes pH 7.5, 5 mM DTT, 100 mM (wt) or 300 mM (mutants) NaCl, 5% glycerol. To be noted: protein: recombinant; tags: His6-ubiquitin fusion (pHUE); label: Cy5.

Data set [6] concerns the target T2, Mei-P26 NHL RKR. Described as above. Conditions: protein: recombinant; tags: GST removed by TEV; label: Cy5.

The record followed here is paper PMC9070667, “Molecular insights into RNA recognition and gene regulation by the TRIM-NHL protein Mei-P26”.

Regarding UUUUUAC (ssRNA) [SEQ5], the binding result in data set [1] (label: Cy5) is “binds”.

With GGUCUUUUUACAAAAG (ssRNA) [Mlc-c], the binding result in data set [2] is given as “no binding”; in data set [3] (label: 32P), “binds”.

Turning to GGAGUCCAACUCC (structured_RNA) [dsRNA hairpin (Lin41 SEQ)], the binding result in data set [1] (label: Cy5 (MST), 32P (EMSA), hairpin) is given as “no binding”.

As for GCCAUUUUUUAUCUGCCA (ssRNA) [Col4a1], the binding result in data set [2] is “no binding”; in data set [3] (label: 32P) it was “binds”.

CCCUUUUUUUAUACACAA (ssRNA) [lost]: the binding result is on record as “no binding” in data set [2] and “binds” in data set [3] (label: 32P).

Turning to UUUUACAA (ssRNA) [SEQ44U], the binding result in data set [1] (label: Cy5) is “binds”.

Regarding UUUUUAA (ssRNA) [BRATmut], the binding result in data set [1] (label: Cy5) is given as “binds”.

In the case of AUCCUUUUUAAAACUCC (ssRNA) [LanA], the binding result in data set [2] was “no binding”; in data set [3] (label: 32P), “binds”.

Turning to AUUUACA (ssRNA) [SEQ2], the binding result in data set [1] (label: Cy5) is “binds”.

As for UUUUUUUUU (ssRNA) [U9], the binding result is listed as “binds” in data set [3] (label: Cy5 (MST), 32P (EMSA)) and “binds” in data set [4].

Regarding UUGUUAA (ssRNA) [BRAT1], the binding result in data set [5] was “binds”.

Consider UUUUACA (ssRNA) [SEQ3], for which, in data set [6], the binding result is reported as “no binding”. Besides, the Kd (in general, the equilibrium constant for the complex coming apart) in data set [1] (label: Cy5) stood at 1700 nM.

Take UUUUUUU (ssRNA) [U7 (SEQ1)]: the Kd in data set [1] (label: Cy5) worked out at 1800 ± 200 nM.

TTTTACA (ssDNA) [DNA]: the binding result in data set [1] (label: Cy5 (MST), 32P (EMSA)) is “no binding”.

Take AGUAAUUUUUUCUAUUAAAGU (ssRNA) [Hrb27C]: the values for the binding result in data set [2] and in data set [3] (label: 32P) were “no binding” and “binds”, respectively.
